Source: patent US20220040297A1 (Chugai, published 2022)
Substitutions are numbered along the chain they refer to. Numbers in names are those of the source.

Biological target: T1, CD3ε homodimer protein (human, UniProt P07766 23-126, limits assumed, sulfo-tag or biotin label in some ECL assays)
T1 construct: also called human CD3ε homodimer protein; CD3 (CD3ε)
Experiment: SPR, CD3ε homodimer on chip;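 also: biacore SPR with antibody variants flowed as analyte over amine-coupled CD3ε homodimer on a CM chip, bound amount of each single-residue H chain variant over that of parent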
Description: An appropriate amount of CD3ε homodimer protein was immobilized onto Sensor chip CM4 (GE Healthcare Japan Corp.) by the amine coupling method. Then, the antibody having an appropriate concentration was injected thereto as an analyte and allowed to interact with the CD3ε homodimer protein on the sensor chip. Then, the sensor chip was regenerated by the injection of 10 mmol/L glycine-HCl (pH 1.5). The assay was conducted at 25° C., and HBS-EP+ (GE Healthcare Japan Corp.) was used as a running buffer. […] Each parameter was calculated using Biacore T200 Evaluation Software (GE Healthcare Japan Corp.).
Specifically, when the amount of the antibody comprising CE115HA000 bound was defined as X and the amount of the H chain one-amino acid altered form bound was defined as Y, a value of Z (ratio of amounts bound)=Y/X was used.

T1 sequence (P07766 23-126 limits assumed): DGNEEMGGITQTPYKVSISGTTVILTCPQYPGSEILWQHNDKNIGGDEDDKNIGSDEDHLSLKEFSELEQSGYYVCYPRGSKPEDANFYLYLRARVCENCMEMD

B1: CE115HA000 S52cF (antibody, name in Kabat numbering, V domains shown)
VH: QVQLVESGGGVVQPGRSLRLSCAASGFTFSNAWMHWVRQAPGKGLEWVAQIKAKFNNYATYYAESVKGRFTISRDDSKNSLYLQMNSLKTEDTAVYYCRYVHYGAYYGVDAWGQGTTVTVSS
VL: DIVMTQSPLSLPVTPGEPASISCRSSQSLVHSNRNTYLHWYQQKPGQAPRLLIYKVSNRFSGVPDRFSGSGSGTDFTLKISRVEAEDVGVYYCGQGTQVPYTFGQGTKLEIK
- ratio of amounts bound vs CE115HA000: 1.13

B2: CE115HA000 S52cG (antibody, name in Kabat numbering, V domains shown)
VH: B1 VH with F55G
VL: B1 VL
- ratio of amounts bound vs CE115HA000: 0.97

B3: CE115HA000 S52cK (antibody, name in Kabat numbering, V domains shown)
VH: B1 VH with F55K
VL: B1 VL
- ratio of amounts bound vs CE115HA000: 1.19

B4: CE115HA000 S52cL (antibody, name in Kabat numbering, V domains shown)
VH: B1 VH with F55L
VL: B1 VL
- ratio of amounts bound vs CE115HA000: 0.98

B5: CE115HA000 S52cQ (antibody, name in Kabat numbering, V domains shown)
VH: B1 VH with F55Q
VL: B1 VL
- ratio of amounts bound vs CE115HA000: 1.04

B6: CE115HA000 S52cV (antibody, name in Kabat numbering, V domains shown)
VH: B1 VH with F55V
VL: B1 VL
- ratio of amounts bound vs CE115HA000: 0.93

B7: CE115HA000 S62D (antibody, name in Kabat numbering, V domains shown)
VH: B1 VH with F55S, S65D
VL: B1 VL
- ratio of amounts bound vs CE115HA000: 0.92

B8: CE115HA000 S62E (antibody, name in Kabat numbering, V domains shown)
VH: B1 VH with F55S, S65E
VL: B1 VL
- ratio of amounts bound vs CE115HA000: 0.92

B9: CE115HA000 S62K (antibody, name in Kabat numbering, V domains shown)
VH: B1 VH with F55S, S65K
VL: B1 VL
- ratio of amounts bound vs CE115HA000: 1.19

B10: CE115HA000 S62P (antibody, name in Kabat numbering, V domains shown)
VH: B1 VH with F55S, S65P
VL: B1 VL
- ratio of amounts bound vs CE115HA000: 1

B11: CE115HA000 S74P (antibody, name in Kabat numbering, V domains shown)
VH: B1 VH with F55S, S77P
VL: B1 VL
- ratio of amounts bound vs CE115HA000: 0.91

B12: CE115HA000 S77T (antibody, name in Kabat numbering, V domains shown)
VH: B1 VH with F55S, S80T
VL: B1 VL
- ratio of amounts bound vs CE115HA000: 0.9

B13: CE115HA000 T28D (antibody, name in Kabat numbering, V domains shown)
VH: B1 VH with T28D, F55S
VL: B1 VL
- ratio of amounts bound vs CE115HA000: 0.56

B14: CE115HA000 T28S (antibody, name in Kabat numbering, V domains shown)
VH: B1 VH with T28S, F55S
VL: B1 VL
- ratio of amounts bound vs CE115HA000: 0.91

B15: CE115HA000 T57A (antibody, name in Kabat numbering, V domains shown)
VH: B1 VH with F55S, T60A
VL: B1 VL
- ratio of amounts bound vs CE115HA000: 0.98

B16: CE115HA000 T57I (antibody, name in Kabat numbering, V domains shown)
VH: B1 VH with F55S, T60I
VL: B1 VL
- ratio of amounts bound vs CE115HA000: 0.61

B17: CE115HA000 T57K (antibody, name in Kabat numbering, V domains shown)
VH: B1 VH with F55S, T60K
VL: B1 VL
- ratio of amounts bound vs CE115HA000: 1.32

B18: CE115HA000 T57N (antibody, name in Kabat numbering, V domains shown)
VH: B1 VH with F55S, T60N
VL: B1 VL
- ratio of amounts bound vs CE115HA000: 0.97

B19: CE115HA000 V11L (antibody, name in Kabat numbering, V domains shown)
VH: B1 VH with V11L, F55S
VL: B1 VL
- ratio of amounts bound vs CE115HA000: 1

B20: CE115HA000 V95D (antibody, name in Kabat numbering, V domains shown)
VH: B1 VH with F55S, V101D
VL: B1 VL
- ratio of amounts bound vs CE115HA000: 0.24

B21: CE115HA000 V95S (antibody, name in Kabat numbering, V domains shown)
VH: B1 VH with F55S, V101S
VL: B1 VL
- ratio of amounts bound vs CE115HA000: 0.22

B22: CE115HA000 V100cA (antibody, name in Kabat numbering, V domains shown)
VH: B1 VH with F55S, V109A
VL: B1 VL
- ratio of amounts bound vs CE115HA000: 0.48

B23: CE115HA000 V100cP (antibody, name in Kabat numbering, V domains shown)
VH: B1 VH with F55S, V109P
VL: B1 VL
- ratio of amounts bound vs CE115HA000: 0.8

B24: CE115HA000 W33A (antibody, name in Kabat numbering, V domains shown)
VH: B1 VH with W33A, F55S
VL: B1 VL
- ratio of amounts bound vs CE115HA000: 0.1

B25: CE115HA000 W33D (antibody, name in Kabat numbering, V domains shown)
VH: B1 VH with W33D, F55S
VL: B1 VL
- ratio of amounts bound vs CE115HA000: 0.1

B26: CE115HA000 W33F (antibody, name in Kabat numbering, V domains shown)
VH: B1 VH with W33F, F55S
VL: B1 VL
- ratio of amounts bound vs CE115HA000: 0.65

B27: CE115HA000 W33H (antibody, name in Kabat numbering, V domains shown)
VH: B1 VH with W33H, F55S
VL: B1 VL
- ratio of amounts bound vs CE115HA000: 0.13

B28: CE115HA000 W33L (antibody, name in Kabat numbering, V domains shown)
VH: B1 VH with W33L, F55S
VL: B1 VL
- ratio of amounts bound vs CE115HA000: 0.1

B29: CE115HA000 W33Y (antibody, name in Kabat numbering, V domains shown)
VH: B1 VH with W33Y, F55S
VL: B1 VL
- ratio of amounts bound vs CE115HA000: 0.66

B30: CE115HA000 Y55D (antibody, name in Kabat numbering, V domains shown)
VH: B1 VH with F55S, Y58D
VL: B1 VL
- ratio of amounts bound vs CE115HA000: 0.45

B31: CE115HA000 Y55G (antibody, name in Kabat numbering, V domains shown)
VH: B1 VH with F55S, Y58G
VL: B1 VL
- ratio of amounts bound vs CE115HA000: 0.55

B32: CE115HA000 Y55S (antibody, name in Kabat numbering, V domains shown)
VH: B1 VH with F55S, Y58S
VL: B1 VL
- ratio of amounts bound vs CE115HA000: 0.26

B33: CE115HA000 Y58A (antibody, name in Kabat numbering, V domains shown)
VH: B1 VH with F55S, Y61A
VL: B1 VL
- ratio of amounts bound vs CE115HA000: 0.22

B34: CE115HA000 Y58D (antibody, name in Kabat numbering, V domains shown)
VH: B1 VH with F55S, Y61D
VL: B1 VL
- ratio of amounts bound vs CE115HA000: 0.11

B35: CE115HA000 Y58K (antibody, name in Kabat numbering, V domains shown)
VH: B1 VH with F55S, Y61K
VL: B1 VL
- ratio of amounts bound vs CE115HA000: 0.3

B36: CE115HA000 Y58L (antibody, name in Kabat numbering, V domains shown)
VH: B1 VH with F55S, Y61L
VL: B1 VL
- ratio of amounts bound vs CE115HA000: 0.27

B37: CE115HA000 Y58N (antibody, name in Kabat numbering, V domains shown)
VH: B1 VH with F55S, Y61N
VL: B1 VL
- ratio of amounts bound vs CE115HA000: 0.33

B38: CE115HA000 Y58Q (antibody, name in Kabat numbering, V domains shown)
VH: B1 VH with F55S, Y61Q
VL: B1 VL
- ratio of amounts bound vs CE115HA000: 0.19

B39: CE115HA000 Y58S (antibody, name in Kabat numbering, V domains shown)
VH: B1 VH with F55S, Y61S
VL: B1 VL
- ratio of amounts bound vs CE115HA000: 0.18

B40: CE115HA000 Y59A (antibody, name in Kabat numbering, V domains shown)
VH: B1 VH with F55S, Y62A
VL: B1 VL
- ratio of amounts bound vs CE115HA000: 0.35

B41: CE115HA000 Y59D (antibody, name in Kabat numbering, V domains shown)
VH: B1 VH with F55S, Y62D
VL: B1 VL
- ratio of amounts bound vs CE115HA000: 0.7

B42: CE115HA000 Y59E (antibody, name in Kabat numbering, V domains shown)
VH: B1 VH with F55S, Y62E
VL: B1 VL
- ratio of amounts bound vs CE115HA000: 0.66

B43: CE115HA000 Y59S (antibody, name in Kabat numbering, V domains shown)
VH: B1 VH with F55S, Y62S
VL: B1 VL
- ratio of amounts bound vs CE115HA000: 0.94

B44: CE115HA000 Y97D (antibody, name in Kabat numbering, V domains shown)
VH: B1 VH with F55S, Y103D
VL: B1 VL
- ratio of amounts bound vs CE115HA000: 0.24

B45: CE115HA000 Y97P (antibody, name in Kabat numbering, V domains shown)
VH: B1 VH with F55S, Y103P
VL: B1 VL
- ratio of amounts bound vs CE115HA000: 0.11
